{
  "source": "paper PMC9332313",
  "about": "“Folding and Binding Mechanisms of the SH2 Domain from Crkl” (Biomolecules, 2022)",
  "settings_in_all_cases": "both partners purified",
  "key": {"[1]": {"biological_target": "T1, SH2 domain of Crkl protein (residues 1-111), wild type (UniProt P46109 1-111)", "T1 construct": "Crkl adaptor protein, SH2 domain, residues 1-111; Subcloned in pET28b+; all experiments were done on the N-terminally His-tagged protein; also called Crkl-SH2; Crkl SH2 domain; source: E. coli BL21 (DE3), purified (HisTrap nickel column, desalting); not shown: His tag, N-terminal, kept", "T1 sequence (P46109 1-111)": "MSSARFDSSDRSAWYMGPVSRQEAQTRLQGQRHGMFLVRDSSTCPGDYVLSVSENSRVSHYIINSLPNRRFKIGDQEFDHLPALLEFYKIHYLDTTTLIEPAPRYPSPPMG", "assay": "stopped-flow fluorescence kinetics (FRET); dansyl-Pax112-123 constant at 2 μM mixed with Crkl-SH2 2 to 10 μM (pseudo-first-order, kon); koff by displacement of the preincubated 2 µM complex with excess non-dansylated Pax112-123 (30 μM); 283 K; 50 mM sodium-acetate pH 5.0, 0.5 M NaCl"}, "[2]": {"biological_target": "T2, SH2 domain of Crkl protein (residues 1-111), H33A variant (UniProt P46109 1-111, H33A)", "T2 construct": "Crkl adaptor protein, SH2 domain, residues 1-111, His33 replaced by alanine; Site-directed mutant of m1 (QuikChange); source: E. coli BL21 (DE3), purified (HisTrap nickel column, desalting); not shown: His tag, N-terminal, kept", "T2 sequence (P46109 1-111 H33A)": "as the sequence (P46109 1-111) above, with H33A counted along it", "assay": "stopped-flow fluorescence kinetics (FRET); dansyl-Pax112-123 constant at 2 μM mixed with Crkl-SH2 2 to 10 μM (pseudo-first-order, kon); koff by displacement of the preincubated 2 µM complex with excess non-dansylated Pax112-123 (30 μM); 283 K; 50 mM sodium-acetate pH 5.0, 0.5 M NaCl"}, "[3]": {"biological_target": "T3, SH2 domain of Crkl protein (residues 1-111), H80A variant (UniProt P46109 1-111, H80A)", "T3 construct": "Crkl adaptor protein, SH2 domain, residues 1-111, His80 replaced by alanine; Site-directed mutant of m1 (QuikChange); source: E. coli BL21 (DE3), purified (HisTrap nickel column, desalting); not shown: His tag, N-terminal, kept", "T3 sequence (P46109 1-111 H80A)": "as the sequence (P46109 1-111) above, with H80A counted along it", "assay": "stopped-flow fluorescence kinetics (FRET); dansyl-Pax112-123 constant at 2 μM mixed with Crkl-SH2 2 to 10 μM (pseudo-first-order, kon); koff by displacement of the preincubated 2 µM complex with excess non-dansylated Pax112-123 (30 μM); 283 K; 50 mM sodium-acetate pH 5.5, 0.5 M NaCl"}, "[4]": {"biological_target": "T4, SH2 domain of Crkl protein (residues 1-111), H91A variant (UniProt P46109 1-111, H91A)", "T4 construct": "Crkl adaptor protein, SH2 domain, residues 1-111, His91 replaced by alanine; Site-directed mutant of m1 (QuikChange); source: E. coli BL21 (DE3), purified (HisTrap nickel column, desalting); not shown: His tag, N-terminal, kept", "T4 sequence (P46109 1-111 H91A)": "as the sequence (P46109 1-111) above, with H91A counted along it", "assay": "stopped-flow fluorescence kinetics (FRET); dansyl-Pax112-123 constant at 2 μM mixed with Crkl-SH2 2 to 10 μM (pseudo-first-order, kon); koff by displacement of the preincubated 2 µM complex with excess non-dansylated Pax112-123 (30 μM); 283 K; 50 mM sodium-acetate pH 5.5, 0.5 M NaCl"}, "[5]": {"biological_target": "T1, SH2 domain of Crkl protein (residues …)", "assay": "stopped-flow fluorescence kinetics (FRET); dansyl-Pax112-123 constant at 2 μM mixed with Crkl-SH2 2 to 10 μM (pseudo-first-order, kon); koff by displacement of the preincubated 2 µM complex with excess non-dansylated Pax112-123 (30 μM); 283 K; 50 mM sodium-acetate pH 5.5, 0.5 M NaCl"}, "[6]": {"biological_target": "T2, SH2 domain of Crkl protein (residues …)", "assay": "stopped-flow fluorescence kinetics (FRET); dansyl-Pax112-123 constant at 2 μM mixed with Crkl-SH2 2 to 10 μM (pseudo-first-order, kon); koff by displacement of the preincubated 2 µM complex with excess non-dansylated Pax112-123 (30 μM); 283 K; 50 mM sodium-acetate pH 5.5, 0.5 M NaCl"}, "[7]": {"biological_target": "T3, SH2 domain of Crkl protein (residues …)", "assay": "stopped-flow fluorescence kinetics (FRET); dansyl-Pax112-123 constant at 2 μM mixed with Crkl-SH2 2 to 10 μM (pseudo-first-order, kon); koff by displacement of the preincubated 2 µM complex with excess non-dansylated Pax112-123 (30 μM); 283 K; 50 mM sodium-HEPES pH 7.5, 0.5 M NaCl"}, "[8]": {"biological_target": "T4, SH2 domain of Crkl protein (residues …)", "assay": "stopped-flow fluorescence kinetics (FRET); dansyl-Pax112-123 constant at 2 μM mixed with Crkl-SH2 2 to 10 μM (pseudo-first-order, kon); koff by displacement of the preincubated 2 µM complex with excess non-dansylated Pax112-123 (30 μM); 283 K; 50 mM sodium-HEPES pH 7.5, 0.5 M NaCl"}, "[9]": {"biological_target": "T1, SH2 domain of Crkl protein (residues …)", "assay": "stopped-flow fluorescence kinetics (FRET); dansyl-Pax112-123 constant at 2 μM mixed with Crkl-SH2 2 to 10 μM (pseudo-first-order, kon); koff by displacement of the preincubated 2 µM complex with excess non-dansylated Pax112-123 (30 μM); 283 K; 50 mM sodium-HEPES pH 7.5, 0.5 M NaCl"}, "[10]": {"biological_target": "T2, SH2 domain of Crkl protein (residues …)", "assay": "stopped-flow fluorescence kinetics (FRET); dansyl-Pax112-123 constant at 2 μM mixed with Crkl-SH2 2 to 10 μM (pseudo-first-order, kon); koff by displacement of the preincubated 2 µM complex with excess non-dansylated Pax112-123 (30 μM); 283 K; 50 mM sodium-HEPES pH 7.5, 0.5 M NaCl"}},
  "note": "Square brackets hold non-standard residues; d marks the D form. Ends that are not written are not given here. * marks the point of attachment. pY = N[C@@H](Cc1ccc(OP(=O)(O)O)cc1)C(=O)O; Dansyl = CN(C)c1cccc2c(S(=O)(=O)*)cccc12",
  "data": [
    {"binder": "Dansyl-GEEEHV[pY]SFPNK (The dansyl group is the FRET acceptor of Trp14 of the SH2 domain; source: synthetic peptide, bought: GenScript)", "note": "[dansylated Pax_(112–123) peptide (Dans-GEEEHV-pY-SFPNK)]", "values": [
      {"measurement": "Kd", "setting": "[1]", "value": "9500 ± 1700", "unit": "nM"},
      {"measurement": "koff", "setting": "[1]", "value": "49.1 ± 1.7", "unit": "s⁻¹"},
      {"measurement": "kon", "setting": "[1]", "value": "5.2e+06 ± 900000", "unit": "M⁻¹ s⁻¹"},
      {"measurement": "Kd", "setting": "[2]", "value": "7600 ± 700", "unit": "nM"},
      {"measurement": "koff", "setting": "[2]", "value": "33.2 ± 1.4", "unit": "s⁻¹"},
      {"measurement": "kon", "setting": "[2]", "value": "4.4e+06 ± 300000", "unit": "M⁻¹ s⁻¹"},
      {"measurement": "Kd", "setting": "[3]", "value": "2500 ± 500", "unit": "nM"},
      {"measurement": "koff", "setting": "[3]", "value": "20 ± 3.7", "unit": "s⁻¹"},
      {"measurement": "kon", "setting": "[3]", "value": "7.9e+06 ± 900000", "unit": "M⁻¹ s⁻¹"},
      {"measurement": "Kd", "setting": "[4]", "value": "4300 ± 200", "unit": "nM"},
      {"measurement": "koff", "setting": "[4]", "value": "24.1 ± 0.4", "unit": "s⁻¹"},
      {"measurement": "kon", "setting": "[4]", "value": "5.6e+06 ± 300000", "unit": "M⁻¹ s⁻¹"},
      {"measurement": "Kd", "setting": "[5]", "value": "3000 ± 300", "unit": "nM"},
      {"measurement": "koff", "setting": "[5]", "value": "25.6 ± 0.4", "unit": "s⁻¹"},
      {"measurement": "kon", "setting": "[5]", "value": "8.4e+06 ± 700000", "unit": "M⁻¹ s⁻¹"},
      {"measurement": "Kd", "setting": "[6]", "value": "3400 ± 400", "unit": "nM"},
      {"measurement": "koff", "setting": "[6]", "value": "22.8 ± 2.2", "unit": "s⁻¹"},
      {"measurement": "kon", "setting": "[6]", "value": "6.7e+06 ± 400000", "unit": "M⁻¹ s⁻¹"},
      {"measurement": "Kd", "setting": "[7]", "value": "2000 ± 200", "unit": "nM"},
      {"measurement": "koff", "setting": "[7]", "value": "27.8 ± 2.3", "unit": "s⁻¹"},
      {"measurement": "kon", "setting": "[7]", "value": "1.36e+07 ± 1.1e+06", "unit": "M⁻¹ s⁻¹"},
      {"measurement": "Kd", "setting": "[8]", "value": "2600 ± 100", "unit": "nM"},
      {"measurement": "koff", "setting": "[8]", "value": "25.9 ± 0.3", "unit": "s⁻¹"},
      {"measurement": "kon", "setting": "[8]", "value": "1e+07 ± 500000", "unit": "M⁻¹ s⁻¹"},
      {"measurement": "Kd", "setting": "[9]", "value": "2800 ± 400", "unit": "nM"},
      {"measurement": "koff", "setting": "[9]", "value": "28.6 ± 0.5", "unit": "s⁻¹"},
      {"measurement": "kon", "setting": "[9]", "value": "1.04e+07 ± 1.4e+06", "unit": "M⁻¹ s⁻¹"},
      {"measurement": "Kd", "setting": "[10]", "value": "2300 ± 500", "unit": "nM"},
      {"measurement": "koff", "setting": "[10]", "value": "24.6 ± 3.2", "unit": "s⁻¹"},
      {"measurement": "kon", "setting": "[10]", "value": "1.08e+07 ± 1.9e+06", "unit": "M⁻¹ s⁻¹"}
    ]}
  ]
}
